Consider eight molecules from patent US20210380702A1 (Regeneron, published 2021).

Residue numbers refer to the chain shown, from its start.

Experiment [1] addresses T1, recombinant human PD-L1 (amino acids 19-239 of NP_054862.1) with a C-terminal myc-myc-hexahistidine tag (human).
T1 construct: also called hPD-L1-MMH; hPD-L1-MMH Monomer
The experiment can be described thus: SPR (Biacore), mAb captured, 37C. As for the experimental part: (§1) Binding association and dissociation rate constants (kₐ and kd, respectively), equilibrium dissociation constants and dissociation half-lives (KD and t_{1/2}, respectively) of antigen binding to purified anti-PD-L1 monoclonal antibodies were determined using a real-time surface plasmon resonance biosensor assay on a Biacore 4000 instrument. The Biacore sensor surface was either derivatized with polyclonal rabbit anti-mouse antibody (GE, #BR-1008-38) or with monoclonal mouse anti-human Fc antibody (GE, #BR-1008-39) to capture approximately 200-300 RUs of anti-PD-L1 monoclonal antibodies, expressed with either a mouse Fc or with human Fc, respectively. […] Different concentrations of PD-L1 reagents were injected over the anti-PD-L1 monoclonal antibody captured surface at a flow rate of 30 μL/min. The binding of the PD-L1 reagents to the captured monoclonal antibodies was monitored for 3 to 4 minutes while the dissociation of antibody bound PD-L1 reagents was monitored for 10 minutes in HBST running buffer (0.01 M HEPES pH 7.4, 0.15 M NaCl, 3 mM EDTA, 0.05% v/v Surfactant tween-20). Experiments were performed at either 25° C. or 37° C. Kinetic association (kₐ) and dissociation (kd) rate constants were determined by processing and fitting the data to a 1:1 binding model using Scrubber 2.0c curve fitting software. Binding dissociation equilibrium constants (KD) and dissociative half-lives (t_{1/2}) were then calculated from the kinetic rate constants as: KD (M)=kd/kₐ and t_{1/2} (min)=[In2/(60*kd)].

In experiment [2] the target is T2, Human PD-L1 Dimer (human, UniProt Q9NZQ7 19-239).
T2 construct: also called hPD-L1 dimer; hPD-L1-hFc
T2 sequence (Q9NZQ7 19-239): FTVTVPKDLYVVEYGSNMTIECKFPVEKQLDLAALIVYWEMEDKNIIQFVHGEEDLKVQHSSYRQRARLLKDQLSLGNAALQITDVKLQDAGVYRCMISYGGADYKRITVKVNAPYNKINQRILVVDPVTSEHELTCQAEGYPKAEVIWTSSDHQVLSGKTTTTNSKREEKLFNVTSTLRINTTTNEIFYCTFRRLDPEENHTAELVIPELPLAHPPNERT
The experiment can be described thus: SPR (Biacore), mAb captured, 37C. As for the experimental part:
as §1
On the technique in general: In SPR one partner is held on a chip, and binding of the other changes the refractive index at the surface.

In experiment [3] the target is T3, recombinant cynomolgus monkey PD-L1 with a C-terminal myc-myc-hexahistidine tag (cynomolgus monkey (Macaca fascicularis)).
T3 construct: also called MfPD-L1-MMH; MfPD-L1-MMH Monomer
T3 sequence (chain, as listed by the source limits assumed): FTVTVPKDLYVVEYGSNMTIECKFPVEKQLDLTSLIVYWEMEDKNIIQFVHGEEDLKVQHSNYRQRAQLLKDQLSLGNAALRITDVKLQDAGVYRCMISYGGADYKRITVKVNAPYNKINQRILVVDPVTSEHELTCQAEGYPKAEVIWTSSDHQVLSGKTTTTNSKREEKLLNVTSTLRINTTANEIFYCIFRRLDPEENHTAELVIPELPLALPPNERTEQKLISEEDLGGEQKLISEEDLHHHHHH
The experiment can be described thus: SPR (Biacore), mAb captured, 37C. As for the experimental part:
as §1

In experiment [4] the target is T2, Human PD-L1 Dimer. The experiment can be described thus: SPR (Biacore), mAb captured, 25C. As for the experimental part: as §1
Experiment [5] addresses T3, recombinant cynomolgus monkey PD-L1 …. The experiment can be described thus: SPR (Biacore), mAb captured, 25C. As for the experimental part: as §1
The target in experiment [6] is T4, recombinant human PD-L1 expressed with a C-terminal myc-myc-hexahistidine tag (hPD-L1-MMH) (human).
T4 construct: Monomeric PD-L1 reagent; also called hPD-L1-MMH Monomer
T4 sequence (chain, as listed by the source limits assumed): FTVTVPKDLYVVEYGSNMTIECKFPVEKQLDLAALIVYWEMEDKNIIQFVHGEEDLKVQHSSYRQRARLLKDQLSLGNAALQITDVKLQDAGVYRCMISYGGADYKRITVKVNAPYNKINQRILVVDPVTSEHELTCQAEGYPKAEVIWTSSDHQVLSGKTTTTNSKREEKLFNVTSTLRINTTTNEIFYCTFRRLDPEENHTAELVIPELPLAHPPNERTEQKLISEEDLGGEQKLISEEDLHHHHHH
The experiment can be described thus: SPR, captured mAb, 25 C. As for the experimental part: as §1

B1: H2aM8310N (antibody, mouse IgG2, V domains shown)
VH: QVQLVQSGAEVKKPGASVQVSCKASGYSFTGYYIHWVRQAPGQGLEWMGWINPNSGTKKYAHKFQGRVTMTRDTSIDTAYMILSSLISDDTAVYYCARDEDWNFGSWFDSWGQGTLVTVSS
VL: DIVMTQTPLSSPVTLGQPASISCRSSQTLVHGDGNTYLSWIQQRPGQPPRLLIYKVSNQFSGVPDRFSGSGAGTDFTLKISRVEAEDVGLYFCMQATHFPITFGQGTRLEIK
notes: also called H2M8310N
Turning to B1, the Kd in experiment [1] is 9.7 nM; with Human PD-L1 Dimer [2], 0.258 nM; in experiment [3] it was 2.27 nM; with Human PD-L1 Dimer [4], 0.183 nM; in experiment [5] it was 2.97 nM. Besides, the koff in experiment [1] is 0.00128 s⁻¹; with Human PD-L1 Dimer [2], 0.000124 s⁻¹; in experiment [3], 0.00107 s⁻¹; with Human PD-L1 Dimer [4], 5.71e-05 s⁻¹; in experiment [5], 0.000306 s⁻¹. For the same molecule, the kon in experiment [1] turned out to be 132000 M⁻¹ s⁻¹; with Human PD-L1 Dimer [2], 481000 M⁻¹ s⁻¹; in experiment [3], 471000 M⁻¹ s⁻¹; with Human PD-L1 Dimer [4], 313000 M⁻¹ s⁻¹; in experiment [5], 103000 M⁻¹ s⁻¹. Besides, the t1/2 in experiment [1] is 9 min; with Human PD-L1 Dimer [2] it was 93 min; in experiment [3], 11 min; with Human PD-L1 Dimer [4] it was 202 min; in experiment [5], 38 min.

B2: H1H9396P2 (antibody, human IgG1, V domains shown)
VH: QVQLVQSGAEVEKPGASVKVSCKASGYIFTHYGISWVRQAPGQGLEWVGWISPYNGYTDYAQKLQGRVTLTTDTSTTTAYMELRNLRSDDTAMYYCSRGRGPYWSFDLWGRGTLVTVSS
VL: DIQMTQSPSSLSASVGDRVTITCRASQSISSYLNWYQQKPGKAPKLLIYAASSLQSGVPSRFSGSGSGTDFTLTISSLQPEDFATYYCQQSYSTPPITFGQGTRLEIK
B2: in experiment [6], the Kd turned out to be 12.7 nM, the koff was determined as 0.00218 s⁻¹, the kon stood at 172000 M⁻¹ s⁻¹ and the t1/2 is 5.3 min.

B3: H2aM8309N (antibody, mouse IgG2, V domains shown)
VH: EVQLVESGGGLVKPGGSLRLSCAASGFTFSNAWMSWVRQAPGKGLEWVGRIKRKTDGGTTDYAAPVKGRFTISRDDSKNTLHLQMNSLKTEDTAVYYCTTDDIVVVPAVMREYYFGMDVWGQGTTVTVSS
VL: DIQMTQSPSSLSASVGDRVTITCRTSQGIRNDLGWYQQKPGKAPKRLIYAASSLQSGVPSRFSGSGSGTEFTLTISSLQPEDFATYYCLQHNNYPYTFGQGTKLEIK
notes: also called H2M8309N
Regarding B3, the Kd in experiment [1] came out at 29.7 nM; with Human PD-L1 Dimer [2], 0.0376 nM; in experiment [3], 26.3 nM; in the experiment with Human PD-L1 Dimer [4], 0.0429 nM; in experiment [5] it was 14.9 nM. The koff in experiment [1] amounted to 0.0314 s⁻¹; with Human PD-L1 Dimer [2], 0.000166 s⁻¹; in experiment [3], 0.0281 s⁻¹; with Human PD-L1 Dimer [4] it was 0.000144 s⁻¹; in experiment [5], 0.013 s⁻¹. Also, the kon in experiment [1] came out at 1.06e+06 M⁻¹ s⁻¹; with Human PD-L1 Dimer [2] it was 4.41e+06 M⁻¹ s⁻¹; in experiment [3], 1.07e+06 M⁻¹ s⁻¹; in the experiment with Human PD-L1 Dimer [4], 3.36e+06 M⁻¹ s⁻¹; in experiment [5], 870000 M⁻¹ s⁻¹. The t1/2 is 0.4 min in experiment [1]; 70 min with Human PD-L1 Dimer [2]; 0.4 min in experiment [3]; 80 min with Human PD-L1 Dimer [4]; 0.9 min in experiment [5].

B4: H2aM8306N (antibody, mouse IgG2, V domains shown)
VH: EVQLVESGGGLVQPGGSLRLSCAASGFTFSRFWMSWVRQAPGKGLEWVANINQDGTEKYYVDSVKGRFTISRDNAKNSLYLQMNSLRAGDTAVYYCANTYYDFWSGHFDYWGQGTLVTVSS
VL: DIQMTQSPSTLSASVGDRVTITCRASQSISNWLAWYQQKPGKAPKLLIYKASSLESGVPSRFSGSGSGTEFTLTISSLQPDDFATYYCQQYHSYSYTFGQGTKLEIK
notes: also called H2M8306N
With B4, the Kd in experiment [1] stood at 172 nM; with Human PD-L1 Dimer [2], 0.417 nM; in experiment [3], 134 nM; in the experiment with Human PD-L1 Dimer [4], 0.418 nM; in experiment [5], 47.7 nM. Besides, the koff came out at 0.031 s⁻¹ in experiment [1]; 0.000416 s⁻¹ with Human PD-L1 Dimer [2]; 0.0368 s⁻¹ in experiment [3]; 0.000309 s⁻¹ with Human PD-L1 Dimer [4]; 0.00788 s⁻¹ in experiment [5]. The kon in experiment [1] is 180000 M⁻¹ s⁻¹; in the experiment with Human PD-L1 Dimer [2], 997000 M⁻¹ s⁻¹; in experiment [3], 274000 M⁻¹ s⁻¹; with Human PD-L1 Dimer [4], 739000 M⁻¹ s⁻¹; in experiment [5], 165000 M⁻¹ s⁻¹. In addition, the t1/2 in experiment [1] worked out at 0.4 min; in the experiment with Human PD-L1 Dimer [2] it was 28 min; in experiment [3] it was 0.3 min; with Human PD-L1 Dimer [4] it was 37 min; in experiment [5], 1.5 min.

B5: H2aM8314N (antibody, mouse IgG2, V domains shown)
VH: EVQLVESGGGVVRPGGSLRLSCAASGFTFDDYGMTWVRQAPGRGLEWVSGIHWHGKRTGYADSVKGRFTISRDNAKKSLYLQMNSLKGEDTALYHCVRGGMSTGDWFDPWGQGTLVIVSS
VL: DIQMTQSPSSLSASLGDRVTITCRASQSINSYLNWYQQKPGKAPKLLIYVASSLQSGVPSRFSGSGSGTEFTLTISNLQPEDFATYYCQQSYSTPPITFGQGTRLEIK
notes: also called H2M8314N
Regarding B5, the Kd was found to be 0.14 nM in experiment [1]; 0.00591 nM with Human PD-L1 Dimer [2]; 0.142 nM in experiment [3]; 0.00426 nM in the experiment with Human PD-L1 Dimer [4]; 0.0724 nM in experiment [5]. The koff in experiment [1] was determined as 0.00015 s⁻¹; in the experiment with Human PD-L1 Dimer [2], 2.3e-05 s⁻¹; in experiment [3], 0.000152 s⁻¹; with Human PD-L1 Dimer [4], 1.35e-05 s⁻¹; in experiment [5], 7e-05 s⁻¹. The kon is 1.07e+06 M⁻¹ s⁻¹ in experiment [1]; 3.89e+06 M⁻¹ s⁻¹ with Human PD-L1 Dimer [2]; 1.07e+06 M⁻¹ s⁻¹ in experiment [3]; 3.16e+06 M⁻¹ s⁻¹ in the experiment with Human PD-L1 Dimer [4]; 966000 M⁻¹ s⁻¹ in experiment [5]. The t1/2 worked out at 77 min in experiment [1]; 503 min in the experiment with Human PD-L1 Dimer [2]; 76 min in experiment [3]; 859 min with Human PD-L1 Dimer [4]; 165 min in experiment [5].

B6: H2aM8317N (antibody, mouse IgG2, V domains shown)
VH: EVQLVESGGGLVQPGGSLRLSCAASGFTVGSNYMNWVRQAPGKGLEWVSVIYSGGSTYYADSVKGRFTISRLTSKNTLYLQMSSLRPEDTAVYYCARGIRGLDVWGQGTTVTVSS
VL: B5 VL with L15V, S28T, S31I, K42R, K45R, V50A, E70D, N77S, Q89H
notes: also called H2M8317N
Turning to B6, the Kd in experiment [1] was 647 nM; with Human PD-L1 Dimer [2], 1.36 nM; in experiment [3] it was 179 nM; in the experiment with Human PD-L1 Dimer [4], 1.25 nM; in experiment [5], 226 nM. In addition, the koff stood at 0.0585 s⁻¹ in experiment [1]; 0.000657 s⁻¹ in the experiment with Human PD-L1 Dimer [2]; 0.0476 s⁻¹ in experiment [3]; 0.00045 s⁻¹ with Human PD-L1 Dimer [4]; 0.0238 s⁻¹ in experiment [5]. Also, the kon in experiment [1] is 90300 M⁻¹ s⁻¹; in the experiment with Human PD-L1 Dimer [2], 481000 M⁻¹ s⁻¹; in experiment [3], 266000 M⁻¹ s⁻¹; with Human PD-L1 Dimer [4], 359000 M⁻¹ s⁻¹; in experiment [5], 106000 M⁻¹ s⁻¹. In addition, the t1/2 in experiment [1] was determined as 0.2 min; with Human PD-L1 Dimer [2] it was 18 min; in experiment [3] it was 0.2 min; with Human PD-L1 Dimer [4], 26 min; in experiment [5], 0.5 min.

B7: H2aM8321N (antibody, mouse IgG2, V domains shown)
VH: EERLVESGGDLVQPGGSLRLSCAASGITVGTNYMNWVRQAPGKGLEWVSVISSGGNTHYADSVKGRFIMSRQTSKNTLYLQMNSLETEDTAVYYCARGIRGLDVWGQGTMVTVSS
VL: B5 VL with L15V, I29M, N30S, K42R, Y49F, V50A, E70D, N77S
notes: also called H2M8321N
In the case of B7, the Kd in experiment [1] was determined as 91.6 nM; with Human PD-L1 Dimer [2] it was 0.285 nM; in experiment [3], 51.1 nM; with Human PD-L1 Dimer [4] it was 0.353 nM; in experiment [5], 29.9 nM. Moreover, the koff was 0.00929 s⁻¹ in experiment [1]; 0.000269 s⁻¹ with Human PD-L1 Dimer [2]; 0.00816 s⁻¹ in experiment [3]; 0.000287 s⁻¹ with Human PD-L1 Dimer [4]; 0.00402 s⁻¹ in experiment [5]. The kon in experiment [1] worked out at 101000 M⁻¹ s⁻¹; with Human PD-L1 Dimer [2] it was 946000 M⁻¹ s⁻¹; in experiment [3], 159000 M⁻¹ s⁻¹; with Human PD-L1 Dimer [4], 813000 M⁻¹ s⁻¹; in experiment [5], 134000 M⁻¹ s⁻¹. The t1/2 in experiment [1] is 1.2 min; in the experiment with Human PD-L1 Dimer [2], 43 min; in experiment [3], 1.4 min; in the experiment with Human PD-L1 Dimer [4], 40 min; in experiment [5], 2.9 min.

B8: H2aM8312N (antibody, mouse IgG2, V domains shown)
VH: QVHLVQSGAEVKKPGASVKVSCKASGYTFTGYYIHWVRQAPGHGLEWMGWLNPNTGTTKYIQNFQGRVTMTRDTSSSTAYMELTRLRSDDTAVYYCARDEDWNYGSWFDTWGQGTLVTVSS
VL: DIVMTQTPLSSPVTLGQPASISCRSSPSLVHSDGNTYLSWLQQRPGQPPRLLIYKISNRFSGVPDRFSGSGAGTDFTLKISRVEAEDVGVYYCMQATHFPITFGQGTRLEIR
notes: also called H2M8312N
As to B8, the Kd turned out to be 45.3 nM in experiment [1]; 0.732 nM with Human PD-L1 Dimer [2]; 32.7 nM in experiment [3]; 0.413 nM with Human PD-L1 Dimer [4]; 8.42 nM in experiment [5]. Moreover, the koff in experiment [1] was determined as 0.00403 s⁻¹; in the experiment with Human PD-L1 Dimer [2], 0.000261 s⁻¹; in experiment [3] it was 0.00332 s⁻¹; with Human PD-L1 Dimer [4] it was 0.000102 s⁻¹; in experiment [5], 0.000597 s⁻¹. In addition, the kon is 88900 M⁻¹ s⁻¹ in experiment [1]; 357000 M⁻¹ s⁻¹ with Human PD-L1 Dimer [2]; 101000 M⁻¹ s⁻¹ in experiment [3]; 247000 M⁻¹ s⁻¹ with Human PD-L1 Dimer [4]; 70900 M⁻¹ s⁻¹ in experiment [5]. In addition, the t1/2 in experiment [1] is 2.9 min; in the experiment with Human PD-L1 Dimer [2], 44 min; in experiment [3], 3.5 min; with Human PD-L1 Dimer [4] it was 113 min; in experiment [5], 19 min.

Usually Kd stands for the concentration at which binding is half-saturated. Broadly, the koff is the first-order rate constant of dissociation. In general, kon refers to a measure of how fast the partners come together.
